Experimental data taken from the NTF2 design screens of Basanta et al. (2020).

Test: protease stability score; higher = more stable; yeast display proteolysis, trypsin and chymotrypsin;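 also: log10 excess protease needed over predicted unfolded state with 0 meaning unfolded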

DEESLRKFAKRVFRALQTGNPEDIHRLFDKDAHFVVGDKEVHGREQAIKFLSHIRRRADRISLKRMSVRGDKVSIDLQMTVDGHRTRFIVYIQVHNGRARRLKIEEN
protease stability score: 1.57

DEESMHRMVTDLMHIIDSGNPDEAVKLADPNVQVTYGDRKYHGQDAVRDYIRELKKRVDTVNLKRVELSGEKATATAVFNVNGNRVDVEMTVTAQNGKIQSIDASVRDPDQKRKEKK
protease stability score: 0.8

DEESNHDVARKLMRALETGDPDKLRELADKHARITVGEKTIHGREDASRFAKELRDRIDHATVKHMDVDGNKVVINMTVRVNGRDLEVFVTAIVTNGRIKHIRFQYTDEDKNKEVEG
protease stability score: 1.18

DEESQARKFIKQYHDVLETGDENEARRLADENVKVHVGEFHYRGSDQYAHAVKRLRNKVDHIHMTLTEISVSNGEVNVVLKVVLNYNGTNDSFKMTMRADRVNGTLVLVEVKNG
protease stability score: 0.389

DEESQKQMMKEMSDVWKHNDPDEAQKLADKDVKIRYGDREYHGREDFVSAMREFSKQADSITVKHMTVQGDKIVLDIIIQYDGQHREIVVIVHVHNGRIQELQIQDG
protease stability score: 0.637

DEESRAQSFMSKFNDNLRRGDPEKLKTYMDPNVKVQVGEKRLNGREQAARFWVEIARHVDHISVEFKSLKVTGDKIKAKAIVVLDVNGQKRRQDVVLYAQIQGDTIRLKKVDAP
protease stability score: 1.07

DEESREQQVHHMMEAIKTGDEDRARTLMDKDASLQVGDKVFQGRKEAAKAVSEIVRRVDRFRVDSVTVSGNQVDAKVQFEVNGRNMQATIRIQMHNGRIQHLVIEFRDPNQYREVKK
protease stability score: 1.05

DEESRRKQAQEFNENLEQGNFEELMKLLDPNAHIIIGEKEVKGREDIRKQQEEDQRRIDHVQIQSVTAHGDKIRALIRFTVNGQQTEVHVVLSFHNGRVKEMKIHTK
protease stability score: -0.324

DEESVQTFAQQRRQGNFEELIKMMDPNVEMKVGDKTWTGREQVQTALEHLKERVDRIQIDHMDVKGNHVDIDYVLNFNGRNVKATQKIEMKNGSAKRIQIDATNEENEKELKKAFS
protease stability score: -0.163

DEETAEQVMRELNRLLKNGNPDEMMTMMDKDARIEVGDKTYHGRDDIRRQNKEDRRRVDRFEVTSVDVRGDKADIDARFQFNGKTKRYQLFAKFHNGRVKHLEIEDK
protease stability score: 0.034

DEETAQKIVEKLATGDEEQKREQMDKDVTVVIGDKELRGRETIVNQLRKIRKQVDHLEVKTYSAHNGRAEIVMRMQVNGRTMEYSIRVQVHNGRIQHIKFRVRNHEVQELLDRLLS
protease stability score: 0.464

DEETDAKKAKDDMQHVANTNNPKDRETLLDENAEIVVGDEKYQGRHDVQKLNQEIEKRVDEVRVEVTEVTIQGDKLHVDAVFRVRVNGKTEQDRKVIVMDIHNGSVKVRFIHQP
protease stability score: 0.94

DEETDEKVAKTLMRIMRTGDPKQYADQADEEVRVVVGDQTYTGRESVSEAFEEWTERVDHLEIKDIRVHGEKVNIDAVVDINGHQRKIEFSMTLHNGRIKELVYTDG
protease stability score: -0.598

DEETEDKARRFVEAFHTGDPKNINRLMDKDARMKYGDTTVHGRHQIDKWIKELKDEIRIELDRVEIRADNGRVTAELDMVFDVNGKPVKHTLVFIFQFHNGRMHEVKIRIDEDVLRKLKR
protease stability score: 0.746

DEETHANEFLKTREKALTSNDETELRRLVPPDVRFQVGDKQIHGREEWARKLKDDRTRVDHVTVRVVSITVRPNHIKVNLQEEVVVNGTRSRDRYEAHIVNENGHMQMHSFRQQ
protease stability score: -0.396

DEETIKHLVKVLEDGDKKRFQKLADPNVRMRVGDKQVHGREKAATLWQHFMDSVDHFFIDHVHIDGEKAHIRADLVVNGQRDTVSIDIKVHNGRIKDVVLRFRDPDYKRKVEKVLG
protease stability score: 1.56

DEETIRHEARKFQEDMKDGNHDEAVKYAPPNVKIQIGDKTFHGREQMKRFFKELRDEIDHVDLEHVTFHNGRLRVEVRFKINGQDFQVVFYFNYHNGQIENFKVQYRNEEEQQKVEG
protease stability score: 0.182

DEETKAHKWAEKFQRALKDGDPKKMENLMDKNVKAQYGDKTIHGDEEANSWVRRMKHQVDHVSATITRVEADNGKVIVRMTVVVDHNGREQRYEVNLEAKDHNGHIHLTRLKVG
protease stability score: 0.262

DEETKAREFIKKVQNVMRTNNPEDFVKQFDPNARMVVGDKSYHGRDDVRKWAQDLFRRADHVSMSVKRLSVHNGRFHMQADLEVHVNGHREEVKVVMNAKDENGQILIKHARFE
protease stability score: 1.77

DEETKARHQIKHMNKLAQTGQLHEVAKQADPNAEFRIGDKTLRGRDNFVRQVKETADTVDHFDVQVRRVHVKGDKAKANIDLRFDVNGKQERRTLRFSAVMDNGEVVVRFMQIN
protease stability score: -0.03
